T1: UHRF1 TTD-PHD (deletion 167-175) (human, UniProt Q96T88 134-366, deletion 167-175)
T1 sequence (looked up): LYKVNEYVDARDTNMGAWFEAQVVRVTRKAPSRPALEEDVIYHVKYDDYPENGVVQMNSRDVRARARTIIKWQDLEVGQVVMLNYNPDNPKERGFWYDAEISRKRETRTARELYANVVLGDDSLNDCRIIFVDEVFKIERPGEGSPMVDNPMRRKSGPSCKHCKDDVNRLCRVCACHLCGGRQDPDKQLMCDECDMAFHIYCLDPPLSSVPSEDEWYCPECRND

B1: UHRF1 PHD domain (298-367) (domain or fragment, human, UniProt Q96T88 298-367, looked up)
chain: SGPSCKHCKDDVNRLCRVCACHLCGGRQDPDKQLMCDECDMAFHIYCLDPPLSSVPSEDEWYCPECRNDA
B2: UHRF1 TTD-PHD (134-366) (domain or fragment, human, UniProt Q96T88 134-366, looked up)
chain: LYKVNEYVDARDTNMGAWFEAQVVRVTRKAPSRDEPCSSTSRPALEEDVIYHVKYDDYPENGVVQMNSRDVRARARTIIKWQDLEVGQVVMLNYNPDNPKERGFWYDAEISRKRETRTARELYANVVLGDDSLNDCRIIFVDEVFKIERPGEGSPMVDNPMRRKSGPSCKHCKDDVNRLCRVCACHLCGGRQDPDKQLMCDECDMAFHIYCLDPPLSSVPSEDEWYCPECRND
B3: hSTE-1 (peptide of the hSTELLA Swap1 region, residues 75-121) (peptide, UniProt Q6W0C5 75-121, looked up)
peptide: EDEWLYSRRGVRTLLSVQREKMARLRYMLLGGVRTHERRPTNKEPKG
B4: mSTE-1 (peptide of the mSTELLA Swap1 region, residues 80-119) (peptide, UniProt Q8QZY3 80-119, looked up)
peptide: QSAFPKRRVRTLLSVLKDPIAKMRRLVRIEQRQKRLEGNE

Key:
[1] = target: B4; experiment: ITC
[2] = target: B3; experiment: ITC
[3] = target: T1, UHRF1 TTD-PHD (deletion 167-175); experiment: crystal structure
[4] = target: B1; experiment: ITC
UHRF1 TTD-PHD (134-366) = target: B2; experiment: ITC

Row | binding result [3] | Kd [4] | Kd (UHRF1 TTD-PHD (134-366)) | also measured | Binder
1 |  |  |  | stoichiometry N [1]: 1; stoichiometry N [2]: 1 | B1
2 |  |  |  | fold more potent affinity than the H3K9me3 tail [1]: > 30 fold; fold weaker affinity than the H3K9me3 tail [2]: 4 fold | B2
3 | binds |  |  | binding result [4]: binds | KRRVRTLLSVLKDPIAKMRRLVRIEQRQKRLEGNE (peptide, UniProt Q8QZY3 85-119, looked up) [mSTE-2 (truncated peptide within mSTE-1, residue 85-119)]
4 | binds | 818 nM | 786 nM |  | B3
5 |  | 91.2 nM | 5.84 nM |  | B4
